Assay [1] deals with T1, Human CLDN6 (on 293T-CLDN6 cells) (human, UniProt P56747 1-220).
T1 construct: In the killing assay it was also endogenous on OVCAR3 and OV90 cells; also called Claudin 6
T1 sequence: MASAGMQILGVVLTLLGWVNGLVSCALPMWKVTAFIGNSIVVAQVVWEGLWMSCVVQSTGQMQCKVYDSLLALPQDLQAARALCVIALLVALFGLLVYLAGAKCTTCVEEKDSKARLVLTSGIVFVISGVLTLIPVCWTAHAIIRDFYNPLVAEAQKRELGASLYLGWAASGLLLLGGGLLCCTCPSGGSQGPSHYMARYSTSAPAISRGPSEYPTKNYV
Description: flow cytometry on 293T-CLDN6 cells. A general note: Flow cytometry measures light scatter and fluorescence of single cells or particles in a stream.

The target in assay [2] is T2, Human CLDN4 (on 293T-CLDN4 cells) (human, UniProt O14493 1-209).
T2 construct: also called Claudin 4
T2 sequence: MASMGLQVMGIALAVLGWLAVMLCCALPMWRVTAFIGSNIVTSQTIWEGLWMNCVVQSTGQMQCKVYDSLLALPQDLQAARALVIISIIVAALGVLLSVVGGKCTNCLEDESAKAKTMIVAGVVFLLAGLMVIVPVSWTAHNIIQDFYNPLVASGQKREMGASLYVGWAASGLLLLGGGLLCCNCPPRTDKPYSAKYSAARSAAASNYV
Briefly: flow cytometry (MFI) on 293T-CLDN4 cells. The protocol: (§1) The heavy chain variable region of antibody P1 from Example 3 was combined with the light chain variable regions of antibodies P2 and P3 by using molecular cloning, respectively, so as to obtain antibodies M1 and M2. After being prokaryotically expressed and puried, purified single chain antibodies (scFv) were obtained. […] Data were analyzed using FlowJo to calculate mean fluorescence intensity (MFI).

Assay [3] addresses T3, Human CLDN9 (on 293T-CLDN9 cells) (human, UniProt O95484 1-217).
T3 construct: also called Claudin 9
T3 sequence: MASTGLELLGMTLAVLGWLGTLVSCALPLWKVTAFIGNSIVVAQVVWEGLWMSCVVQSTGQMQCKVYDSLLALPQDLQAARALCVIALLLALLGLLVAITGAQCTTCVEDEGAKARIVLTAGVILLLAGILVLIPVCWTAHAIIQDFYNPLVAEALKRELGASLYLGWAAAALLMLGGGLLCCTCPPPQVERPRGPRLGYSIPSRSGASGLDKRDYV
Description: flow cytometry (MFI) on 293T-CLDN9 cells. The protocol: as §1

Assay [4] addresses T1, Human CLDN6 (on 293T-CLDN6 cells). Briefly: flow cytometry EC50 on 293T-CLDN6 cells, against antibody H1. Here is the method:
as §1

The target of assay [5] is T2, Human CLDN4 (on 293T-CLDN4 cells). Description: flow cytometry on 293T-CLDN4 cells. The protocol:
(§2) After centrifugation, the supernatant was discarded, and the cells were washed with PBS and incubated with Goat-anti-Mouse FITC at 4° C. After centrifugation, the supernatant was discarded, and the cells were washed and detected by flow cytometry. FlowJo v.X.0.7 was used for statistics and GraphPad Prism 8.0 was used for plotting.

The target of assay [6] is T3, Human CLDN9 (on 293T-CLDN9 cells). Description: flow cytometry on 293T-CLDN9 cells. Here is the method:
as §2

Where a chain is given by its changes, count along the chain named.

B1: antibody M1 (scFv) (scFv, V domains shown)
VH: EVQLVQSGAEVKKPGASVKVSCKASGYTFTGYYMNWVRQAPGQGLEWMGEINPATGSTTYNQKFKARVTITRDTSTSTAYMELSSLRSEDTAVYYCARRDYYLGSNSYALDYWGQGTLVTVSS
VL: DIQMTQSPSSLSASVGDRVTITCQASQSVSNNLNWYQQKPGKAPKLLIYGASKLEDGVPSRFSGSGSGTDFTFTISSLQPEDFATYYCLQHRYMWTFGQGTKVEIK
notes: Tested as a prokaryotically expressed single chain antibody (scFv)
Regarding B1, the midpoint of the response in assay [1], the EC50, lay at 23 nM. Besides, the binding result in assay [2] and in assay [3] was “no binding (tested: 5 µg/mL)” in each case. For the same molecule, the “fold improvement in affinity compared with antibody H1” value in assay [4] was approximately 20 fold.

B2: antibody M2 (scFv) (scFv, V domains shown)
VH: B1 VH
VL: B1 VL with L89Q, Y93F
notes: as for B1
In turn, B2 had a concentration for a half-maximal effect (EC50) in assay [1] of 24.7 nM. For the same molecule, the binding result in assay [2] and in assay [3] was “no binding (tested: 5 µg/mL)” throughout. The “fold improvement in affinity compared with antibody H1” value in assay [4] is approximately 20 fold.

B3: Antibody P2 (scFv) (scFv)
scFv: EVQLVQSGAEVKKPGASVKVSCKASGYTFTGYYMNWVRQAPGQGLEWMGEINPATGSTTYNQKFKARVTITRDTSTSTAYMELSSLRSEDTAVYYCARRDYYYGSGFYAMDYWGQGTLVTVSSGGGGSGGGGSGGGGSDIQMTQSPSSLSASVGDRVTITCQASQSVSNNLNWYQQKPGKAPKLLIYGASKLEDGVPSRFSGSGSGTDFTFTISSLQPEDFATYYCLQHRYMWTFGQGTKVEIK
notes: Prokaryotically expressed single chain antibody
For the molecule B3, a half-maximal effect in assay [1] (EC50) was put at 144 nM.

B4: Antibody P3 (scFv) (scFv)
scFv: B3 scFv with L227Q, Y231F
notes: as for B3
In assay [1], B4 registered a half-maximal effective concentration (EC50) of 555 nM.

B5: Antibody P4 (scFv) (scFv)
scFv: B3 scFv with L227Q
notes: as for B3
For B5, the midpoint of the response in assay [1], the EC50, lay at 183 nM.

B6: Antibody P1 (scFv) (scFv)
scFv: B3 scFv with Y103L, G106N, F107S, M110L, M232L
notes: as for B3
In turn, B6 displayed a 50% effective concentration (EC50) in assay [1] of 62.7 nM.

B7: humanized antibody H1 (scFv-huFc) (Fc fusion)
scFv: B3 scFv with M232L
notes: Tested as scFv-huFc; not shown: human Fc (huFc)
For the molecule B7, the binding result in assay [5] and in assay [6] was “no binding (tested: 10 µg/mL)” each time. The response in assay [1] was half-maximal at 475 nM (EC50).

What is called EC50 is the concentration giving half of the maximal effect. High values mean lower potency in that assay, low ones higher potency in that assay.

These data come from patent US20260265368A1 (CARSGEN LIFE SCIENCES, published 2026).
